Molecular target: Synthetic human amyloid protein Aβ1-42 or Aβ1-40 (UniProt P05067)
Sequence (P05067 whole entry, looked up, tested part not stated): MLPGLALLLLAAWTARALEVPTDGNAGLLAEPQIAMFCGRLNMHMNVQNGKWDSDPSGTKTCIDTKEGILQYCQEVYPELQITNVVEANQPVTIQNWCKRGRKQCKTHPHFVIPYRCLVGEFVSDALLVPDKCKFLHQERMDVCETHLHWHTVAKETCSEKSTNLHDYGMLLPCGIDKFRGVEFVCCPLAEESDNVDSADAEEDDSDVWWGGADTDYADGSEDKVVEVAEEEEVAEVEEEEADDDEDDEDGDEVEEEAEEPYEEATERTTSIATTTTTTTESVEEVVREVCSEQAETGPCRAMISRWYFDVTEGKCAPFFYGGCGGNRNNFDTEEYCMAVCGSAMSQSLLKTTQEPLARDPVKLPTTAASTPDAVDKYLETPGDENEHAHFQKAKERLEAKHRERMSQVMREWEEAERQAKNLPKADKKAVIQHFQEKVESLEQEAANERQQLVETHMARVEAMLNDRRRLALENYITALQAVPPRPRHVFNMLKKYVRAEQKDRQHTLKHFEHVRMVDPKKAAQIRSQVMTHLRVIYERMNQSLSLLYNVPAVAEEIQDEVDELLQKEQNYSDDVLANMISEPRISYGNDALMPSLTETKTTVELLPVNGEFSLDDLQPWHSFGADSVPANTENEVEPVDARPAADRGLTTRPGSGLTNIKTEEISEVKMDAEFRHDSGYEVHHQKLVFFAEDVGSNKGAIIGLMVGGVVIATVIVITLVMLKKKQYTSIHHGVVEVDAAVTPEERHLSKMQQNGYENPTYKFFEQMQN

Substance: KLK1 (Sigma)
- cleavage of amyloid fibrils in vitro, mass spectra after digestion: KLK1 cleaves amyloid fibrils (FIG. 1); in panel C, there is a clear peak at about 2423 M/Z (mass to charge ration), which is an indication of cleavage
- cleavage of soluble amyloid in vitro, mass spectra after digestion: In panel B, there are no visible peaks when KLK1 was added to soluble amyloid. This indicates that KLK1 cleaved the soluble amyloid into smaller fragments
